Results as given in PMC8252471, “Rerouting and Improving Dauc‐8‐en‐11‐ol Synthase from Streptomyces venezuelae to a High Yielding Biocatalyst” (Chemistry (Weinheim an Der Bergstrasse, Germany), 2021).

Substrate: CC(C)=CCC/C(C)=C/CC/C(C)=C/CO[P@@](=O)(O)OP(=O)(O)O
Experiment: enzyme kinetics
Format: biochemical, Streptomyces venezuelae

Protein	Km [mM]	kcat [s⁻¹]
DcS (dauc-8-en-11-ol synthase; formerly isodauc-8-en-11-ol synthase, IdS) (Streptomyces venezuelae ATCC 10712) (protein, motifs: D92 in 92DDYFA, R190, N236 in 236NDVASYERE, H58, H197, Y241) MTVRAVELPQLWMPYPLRVNPYLSALREESETWAREMGMLGGEGPSARGAIWTRSQFHAMTVELLTAWTLPDASLAGLRLNHRFNIWALAWDDYFASTFKQTGDLPGALDFTARLHAFLRPEADARSPEPVNAVERGIADLQKHLFPPRLAHWRQEFNLALAHYIDAGVQELTNSRGGRVPHLIEYAPFRRESFAAHTAPYSVELATGARIPEQLRHTRTVHALLDAFMDVMGLANDVASYEREVHEERDVNNLVVVIGTSLGITLHQAVPAALHMVNARMRDFEHLRHHELPPLVDRFGLRPDEREELETWLGGAASFLSGLHAWYTGAPRYAPTDHSVPEQRQRGGSEGAADRHAPAASSLARGAEAQTCGPTASAGSA	2.90 ± 0.02	35.6 ± 2.9
DcS (dauc-8-en-11-ol synthase; formerly isodauc-8-en-11-ol synthase, IdS) (Streptomyces venezuelae ATCC 10712; H197F/Y241F) (protein, motifs: D92 in 92DDYFA, R190, N236 in 236…, H58, H197, Y241) MTVRAVELPQLWMPYPLRVNPYLSALREESETWAREMGMLGGEGPSARGAIWTRSQFHAMTVELLTAWTLPDASLAGLRLNHRFNIWALAWDDYFASTFKQTGDLPGALDFTARLHAFLRPEADARSPEPVNAVERGIADLQKHLFPPRLAHWRQEFNLALAHYIDAGVQELTNSRGGRVPHLIEYAPFRRESFAAFTAPYSVELATGARIPEQLRHTRTVHALLDAFMDVMGLANDVASFEREVHEERDVNNLVVVIGTSLGITLHQAVPAALHMVNARMRDFEHLRHHELPPLVDRFGLRPDEREELETWLGGAASFLSGLHAWYTGAPRYAPTDHSVPEQRQRGGSEGAADRHAPAASSLARGAEAQTCGPTASAGSA	5.95 ± 0.02	65.5 ± 8.6
